Source: US20250011363A1, “OPTIMIZED SHORTENED PEPTIDE THAT BINDS TO ACETYLCHOLINE RECEPTOR, AND USE THEREOF” (SKINMED CO., LTD., priority 2021, published 2025)

biological target: acetylcholine receptor; test: SPR, peptide at 10 uM, AchR immobilized

Binding affinity [RU]	Binder
18	RRIKAR [6mer-1-731]
13	KRATFR [6mer-1-730]
33	KKHSMK [6mer-1-726]
23	KKKSGK [6mer-1-729]
33	RKMPAK [6mer-1-723]
19	KRPKNK [6mer-1-724]
22	RKAMEK [6mer-1-721]
12	RRNKVR [6mer-1-722]
26	RRAAVR [6mer-1-732]
29	RKANGK [6mer-1-727]
11	RRKHKR [6mer-1-720]
23	RRDNAR [6mer-1-728]
27	KKDAEK [6mer-1-719]
32	KKDKPK [6mer-1-725]

biological target: acetylcholine receptor; test: SPR, AchR immobilized on CM5 chip, peptide 10 µM

Binder	Binding affinity (RU)
RGLSRR [6mer-2-211]	135
RLYYRK [6mer-2-209]	148
RLYYRR [6mer-2-215]	123
KGILKK [6mer-2-216]	126
KWVSKR [6mer-2-207]	153
RLIYKK [6mer-2-202]	122
KSFQRK [6mer-2-205]	147
RSQSRR [6mer-2-210]	128
KSILRR [6mer-2-213]	142
KWQLRR [6mer-2-212]	148
RSQQRK [6mer-2-208]	128
KWQYKK [6mer-2-206]	148
KSRTKR [6mer-2-203]	135
RWRSRK [6mer-2-214]	139
KLFQKK [6mer-2-217]	135
RRVQKR [6mer-2-204]	142

Results, then the binder that gave them:

Binding affinity (RU)	Binder
131	KWQQKK [6mer-2-236]
127	RWQSKK [6mer-2-229]
125	RGQYKK [6mer-2-239]
135	RSLSKR [6mer-2-245]
145	KRLLRR [6mer-2-225]
142	RRRCRK [6mer-2-240]
142	KQLTRR [6mer-2-223]
142	RRRRRK [6mer-2-238]
148	KRVLKR [6mer-2-243]
141	KGQCKK [6mer-2-228]
153	KQVRKK [6mer-2-221]
136	KLVRKK [6mer-2-235]
135	KSQRRR [6mer-2-242]
123	RLVYKR [6mer-2-237]
153	RGVSKR [6mer-2-219]
127	RVVYRK [6mer-2-222]
135	RWIQRR [6mer-2-230]
135	KQLTKR [6mer-2-241]
135	KVYSKR [6mer-2-220]
147	KLQRRK [6mer-2-227]
148	RLFLKR [6mer-2-224]
144	KGISKK [6mer-2-231]
135	KQFTRK [6mer-2-232]
154	RLLCKR [6mer-2-226]
142	RSQTKR [6mer-2-234]
147	KGVSKK [6mer-2-218]
139	RRFSKR [6mer-2-244]
